{"source": "paper PMC7368258", "about": "(Proceedings of the National Academy of Sciences of the …, 2020)", "proteins": {"B1": {"name": "mCER-Prx2(C51S), expressed in HEK293 cells (natural protein)", "chain": "MASGNARIGKPAPDFKATAVVDGAFKEVKLSDYKGKYVVLFFYPLDFTFVSPTEIIAFSNRAEDFRKLGCEVLGVSVDSQFTHLAWINTPRKEGGLGPLNIPLLADVTRRLSEDYGVLKTDEGIAYRGLFIIDGKGVLRQITVNDLPVGRSVDEALRLVQAFQYTDEHGEVCPAGWKPGSDTIKPNVDDSKEYFSKHN"}, "B2": {"name": "recombinant mCER-Prx2 (natural protein)", "chain": "MASGNARIGKPAPDFKATAVVDGAFKEVKLSDYKGKYVVLFFYPLDFTFVCPTEIIAFSNRAEDFRKLGCEVLGVSVDSQFTHLAWINTPRKEGGLGPLNIPLLADVTRRLSEDYGVLKTDEGIAYRGLFIIDGKGVLRQITVNDLPVGRSVDEALRLVQAFQYTDEHGEVCPAGWKPGSDTIKPNVDDSKEYFSKHN"}, "B3": {"name": "recombinant mCER-Prx2(C51S) (natural protein)", "chain": "MASGNARIGKPAPDFKATAVVDGAFKEVKLSDYKGKYVVLFFYPLDFTFVSPTEIIAFSNRAEDFRKLGCEVLGVSVDSQFTHLAWINTPRKEGGLGPLNIPLLADVTRRLSEDYGVLKTDEGIAYRGLFIIDGKGVLRQITVNDLPVGRSVDEALRLVQAFQYTDEHGEVCPAGWKPGSDTIKPNVDDSKEYFSKHN"}, "B4": {"name": "mCER-Prx2(T82E/A85E), expressed in HEK293 cells (natural protein)", "chain": "MASGNARIGKPAPDFKATAVVDGAFKEVKLSDYKGKYVVLFFYPLDFTFVCPTEIIAFSNRAEDFRKLGCEVLGVSVDSQFEHLEWINTPRKEGGLGPLNIPLLADVTRRLSEDYGVLKTDEGIAYRGLFIIDGKGVLRQITVNDLPVGRSVDEALRLVQAFQYTDEHGEVCPAGWKPGSDTIKPNVDDSKEYFSKHN"}, "B5": {"name": "recombinant mCER-Prx2(C172S) (natural protein)", "chain": "MASGNARIGKPAPDFKATAVVDGAFKEVKLSDYKGKYVVLFFYPLDFTFVCPTEIIAFSNRAEDFRKLGCEVLGVSVDSQFTHLAWINTPRKEGGLGPLNIPLLADVTRRLSEDYGVLKTDEGIAYRGLFIIDGKGVLRQITVNDLPVGRSVDEALRLVQAFQYTDEHGEVSPAGWKPGSDTIKPNVDDSKEYFSKHN"}}, "key": {"FRET or BRET": {"target": "the molecule itself", "test": "FRET or BRET"}, "SEC": {"target": "the molecule itself", "test": "SEC"}}, "data": [{"protein": "B1", "values": [{"measurement": "stoichiometry N", "setting": "FRET or BRET", "result": 10}]}, {"protein": "B2", "values": [{"measurement": "stoichiometry N", "setting": "SEC", "result": 10}]}, {"protein": "B3", "values": [{"measurement": "stoichiometry N", "setting": "SEC", "result": 10}]}, {"protein": "B4", "values": [{"measurement": "stoichiometry N", "setting": "FRET or BRET", "result": 2}]}, {"protein": "B5", "values": [{"measurement": "stoichiometry N", "setting": "SEC", "result": 2}]}]}
